# Laboratory results reported in patent publication US20240209099A1 (SUZHOU TRANSCENTA THERAPEUTICS, published 2024).
# Positions count from the first letter of the chain named.
# T1: Recombinant Rhesus macaque VEGFR2/KDR Protein, His tag (rhesus macaque)
# T1 construct: Expressed in HEK293, bought from ACRO Biosystems; also called rhesus VEGFR2-his; rhesus VEGFR2
# T1 chain: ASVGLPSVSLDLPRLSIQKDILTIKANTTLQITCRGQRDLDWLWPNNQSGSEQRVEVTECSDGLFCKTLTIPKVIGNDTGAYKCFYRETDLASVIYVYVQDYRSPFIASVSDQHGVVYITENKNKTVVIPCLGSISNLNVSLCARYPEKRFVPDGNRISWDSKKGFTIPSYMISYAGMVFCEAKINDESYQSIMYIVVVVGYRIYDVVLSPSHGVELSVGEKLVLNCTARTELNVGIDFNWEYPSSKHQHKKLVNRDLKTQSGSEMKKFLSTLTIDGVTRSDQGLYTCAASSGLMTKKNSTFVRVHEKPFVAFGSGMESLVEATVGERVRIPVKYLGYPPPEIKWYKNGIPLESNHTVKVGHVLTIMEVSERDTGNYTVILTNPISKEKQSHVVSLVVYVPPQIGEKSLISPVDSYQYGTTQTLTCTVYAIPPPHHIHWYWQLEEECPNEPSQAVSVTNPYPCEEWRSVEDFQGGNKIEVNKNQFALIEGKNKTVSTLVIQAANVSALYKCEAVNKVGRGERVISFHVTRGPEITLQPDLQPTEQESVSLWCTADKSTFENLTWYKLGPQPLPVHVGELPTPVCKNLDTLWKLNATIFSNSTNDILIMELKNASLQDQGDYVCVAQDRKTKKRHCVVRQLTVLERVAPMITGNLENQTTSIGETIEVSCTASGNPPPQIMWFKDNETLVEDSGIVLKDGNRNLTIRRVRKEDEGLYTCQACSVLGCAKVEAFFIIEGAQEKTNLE
# T2: human VEGFR3 protein (human, UniProt P35916 25-776)
# T2 construct: also called Sino Biological 10806-H08H
# T2 sequence (looked up): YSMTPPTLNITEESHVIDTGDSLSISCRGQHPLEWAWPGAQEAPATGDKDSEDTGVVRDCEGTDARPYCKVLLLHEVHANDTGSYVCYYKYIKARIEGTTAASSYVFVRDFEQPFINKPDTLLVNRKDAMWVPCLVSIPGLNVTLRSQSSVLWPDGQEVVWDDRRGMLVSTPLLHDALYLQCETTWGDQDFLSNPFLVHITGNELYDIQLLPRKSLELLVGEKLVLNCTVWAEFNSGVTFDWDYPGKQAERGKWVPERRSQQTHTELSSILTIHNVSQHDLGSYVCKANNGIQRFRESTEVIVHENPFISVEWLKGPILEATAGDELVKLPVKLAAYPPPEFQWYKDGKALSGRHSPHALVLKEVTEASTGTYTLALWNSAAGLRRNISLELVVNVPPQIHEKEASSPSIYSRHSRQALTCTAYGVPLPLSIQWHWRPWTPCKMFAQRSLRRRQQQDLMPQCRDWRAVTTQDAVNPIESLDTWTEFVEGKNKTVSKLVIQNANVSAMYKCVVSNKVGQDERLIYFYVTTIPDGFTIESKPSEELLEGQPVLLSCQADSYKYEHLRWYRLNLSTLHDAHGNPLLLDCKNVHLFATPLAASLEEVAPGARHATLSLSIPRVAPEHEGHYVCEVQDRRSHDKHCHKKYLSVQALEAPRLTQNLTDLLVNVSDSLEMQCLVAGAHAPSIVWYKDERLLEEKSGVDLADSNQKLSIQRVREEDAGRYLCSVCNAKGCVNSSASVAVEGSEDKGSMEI
# B1: 048 (mouse hybridoma antibody) (antibody, V domains shown)
# VH: EVQLVESGGDLVKPGGSLKLSCAASGFTFSMYGMSWVRQTPDKRLEWVASISIGGSYTYYADSVEGRFTISRENAKNTLFLQMNSLKSEDTALYYCAREMDGNYDYWGHGTTLTVSS
# VL: DVMITQDELSNPVTFGESVSISCRSSKSLLYKDGKTYLNWFLQRPGQSPQLLIYLMSTRASGVSDRFSGSGSGTDFTLEISRVKAEDVGIYYCQQLVEYPFTFGSGTKLEIK
# notes: Mouse antibody purified from hybridoma; also called mAb048; 5G4
# B2: 48-H3L1 (humanized Mab48) (antibody, human IgG1, V domains shown)
# VH: B1 VH with D10G, K19R, T40A, D42G, E65K, E73D, F80Y, K87R, S88A, L93V
# VL: B1 VL with V2I, M3V, N11L, E79K, K84E
# notes: also called 48-H3L1 (CHO)
# How the values were obtained:
# [1] = target: T3, Recombinant Human VEGFR2/KDR Protein, His tag (hVEGFR2-his) (human, UniProt P35968 20-764); experiment: SPR (Biacore), antibody captured by anti-Fc, antigen 2.5-80 nM
# T3 construct: Expressed in HEK293, bought from ACRO Biosystems; also called human VEGFR2-his; Human VEGFR2/KDR-His
# Method: A CM5 sensor chip was activated in each flow cell by 7-min injection (10 μl/min) of freshly prepared 1:1 50 mM N-hydroxysuccinimide (NHS): 200 mM 1-ethyl-3-(3-dimethylaminopropyl)-carbodiimide (EDC). Then anti-human Fc antibody (GE Healthcare) in a concentration of 10 μg/ml in 10 mM sodium acetate buffer PH 5.0 was injected onto the activated chip at 10 μl/min (HBS-EP running buffer: 10 mM HEPES, 150 mM NaCl, 3.4 mM EDTA, 0.005% surfactant P20, pH 7.4). The remaining active coupling sites were blocked by 7 min injection of 1M ethanolamine at 10 μl/min. The immobilization level of each flow cell is ˜9000RU. Antibodies were captured in FC2 by anti-human Fc IgG or anti-mouse Fc (GE Healthcare) to 200˜300RU. FC1 was used as the reference cell. Antigen was injected at varying concentrations (2.5 nM, 5 nM, 10 nM, 20 nM, 40 nM and 80 nM) after capture of antibody. The association time for antibody binding antigen is 180s. Surface Regeneration condition is 120s at 10 μl/min in Gly pH1.5. The signals with captured antibody subtracted from those without captured antibody were calculated with Biacore X100 evaluation software ver. 2.0 (Biacore).
# [2] = target: T3, Recombinant Human VEGFR2/KDR Protein, …; experiment: competition ELISA on coated hVEGFR2-his: hybridoma antibody titrated against 100 ng/ml chimeric 054C, anti-human IgG Fc-HRP
# [3] = target: T3, Recombinant Human VEGFR2/KDR Protein, …; experiment: competition ELISA on coated hVEGFR2-his: hybridoma antibody titrated against 100 ng/ml chimeric 002C, anti-human IgG Fc-HRP
# [4] = target: T4, human VEGFR2 on HUVEC cells (human, UniProt P35968 20-1356); experiment: flow cytometry on HUVEC cells, percent shifted cells (Shift%), anti-mouse IgG-PE
# T4 construct: also called hVEGFR2 on HUVEC
# Method: Log phase HUVEC cells were collected, counted and resuspended in FACS buffer (5% BSA+PBS). 2×10∧5 cells were added to each tube and then washed once with PBS (1500 rpm, 5 mins, RT). Then […] serial diluted VEGFR2 antibodies purified from hybridoma supernatant in FACS buffer were added into corresponding tubes and were incubated at 4° C. for 1 hr. The cells were then washed twice with 1 ml PBS, followed by adding 100 μl/tube of 2nd antibody (1:400 anti-mIgG (H+L)-PE, Cell signaling #8887) in FACS buffer. The cells were incubated at 4° C. for 0.5 hr and then washed twice with PBS, followed by resuspending cells in 600 μl PBS for each sample. The cells were then transferred into FACS tube and the bindings of the antibodies to the cells were detected using flow cytometry (BD Accuri C6) (see FIG. 3).
# The percentage of positive binding cells was calculated and fit by Graphpad Prism Software.
# [5] = target: T3, Recombinant Human VEGFR2/KDR Protein, …; experiment: competition ELISA: hVEGFR2-his coated (1 ug/ml), antibody titrated, then 0.3 ug/ml hVEGF-A added and bound VEGF-A detected; blocked ligand hVEGF-A
# Method: High-binding clear polystyrene 96 well plates were coated with 100 μl/well of 1 μg/ml hVEGFR2-his overnight at 4° C. After washing and blocking, serial diluted antibodies (from 10 μg/ml to 0.0006 μg/ml) were added and incubate for 1 hour at RT. 0.3 μg/ml hVEGF-A (Acrobiosystem, Cat #VE5-H4210) were added and incubated for 2 hour at RT. Then 100 μl/well of 0.25 μg/ml Biotinylated Rabbit Anti-human VEGF-A (Peprotech, Cat #400-P10Bt) was then added for detecting bound VEGF-A. Then 100 μl/well of a solution of HRP conjugated Neutravidin antibody (Pierce, Cat #31001) and TMB were added sequentially. Finally, reaction was terminated using 0.64M H₂SO₄ and plates were read at 450 nm.
# [6] = target: T3, Recombinant Human VEGFR2/KDR Protein, …; experiment: ELISA, hVEGFR2-his coated
# Method: Same protocol of Example 2 antibody screening by ELISA assay. Briefly, 0.5 μg/ml hVEGFR2-his was coated and serially diluted purified antibodies would bind to coated antigen. Using HRP conjugated goat anti-mouse Fc antibody could detect binding signals of each antibody.
# The hybridoma antibodies have similar affinity to human.
# [7] = target: T3, Recombinant Human VEGFR2/KDR Protein, …; experiment: ELISA, hVEGFR2-his coated, anti-human Fc-HRP; antibody made in 293T cells
# Method: Same protocol of Example 4 except using HRP conjugated goat anti-human Fc antibody as secondary antibody. Binding to hVEGFR2-his and rhesus VEGFR2-his (Acrobiosystems, Cat #VE2-C52H3) were also analyzed head-to-head.
# Same protocol of Example 9.
# [8] = target: T3, Recombinant Human VEGFR2/KDR Protein, …; experiment: competition ELISA: VEGF-A coated (0.25 ug/ml), antibody titrated together with 1 ug/ml human VEGFR2, detection with mouse anti-VEGFR2 serum and anti-mouse Fc-HRP; blocked ligand VEGF-A
# Method: (§1) For this assay, 0.25 μg/ml VEGF-A was coated on ELISA plate before a mixture of chimeric antibodies and VEGFR2 were added. To detect free VEGF-A (not bind to VEGFR2), 1:1000 diluted mouse serum (mouse previous immunized with human VEGFR2) were added and HRP conjugated goat anti-mouse Fc antibody was used as secondary antibody.
# (§2) Same protocol of Example 10. Briefly, 0.25 μg/ml VEGF-A was coated overnight at 4° C. After blocking, serial diluted 54-H2L1, 48-H3L1, Ramucirumab and 1 μg/ml human VEGFR2 or rhesus VEGFR2 were added at the same time for 2 hour-incubation. After wash, mouse serum containing polyclone VEGFR2 antibody and HRP conjugated goat anti-mouse Fc antibody were added for detection of free VEGF-A coated on the plates (see FIGS. 13A and 13B).
# [9] = target: T3, Recombinant Human VEGFR2/KDR Protein, …; experiment: ELISA, human VEGFR2-his coated, anti-human Fc-HRP; antibody made in CHO cells
# [10] = target: T1, Recombinant Rhesus macaque VEGFR2/KDR …; experiment: competition ELISA: VEGF-A coated (0.25 ug/ml), antibody titrated together with 1 ug/ml rhesus VEGFR2, detection with mouse anti-VEGFR2 serum and anti-mouse Fc-HRP; blocked ligand VEGF-A
# Method: as §1, §2
# [11] = target: T4, human VEGFR2 on HUVEC cells; experiment: flow cytometry on HUVEC cells, MFI, anti-human IgG (H+L)-PE
# Method: Same methods with Example 11. Briefly, Log phase HUVEC cells were collected and added to each tube. Then 100 μl/tube serial diluted humanized antibodies in FACS buffer were added and kept at 4° C. for 1 hr. Binding of antibodies to HUVEC was detected by PE signal of the 2nd antibody (anti-hIgG (H+L)-PE), which was added after the 1st antibodies. (see FIG. 15).
# human VEGFR3 protein = target: T2, human VEGFR3 protein; experiment: ELISA, 1 µg/ml antigen coated, 1 µg/ml antibody
# Method: (§3) Briefly, 1 μg/ml human VEGFR1 (Sino Biological, cat #10136-H08H), VEGFR2 (Acrobiosystem, cat #KDR-H5227) and VEGFR3 (Sino Biological, cat #10806-H08H) protein were coated overnight at 4° C. 1 μg/ml humanized antibodies (48-H3L1 and 54-H2L1, produced in CHO cells or Ramucirumab from Eli Lilly Germany, lot #20150819) were added for binding to coated antigen. Secondary antibody HRP conjugated goat anti-human Fc antibody were added for detection of binding signal.
# human VEGFR1 protein = target: T5, human VEGFR1 protein (human, UniProt P17948 27-756); experiment: ELISA, 1 µg/ml antigen coated, 1 µg/ml antibody
# T5 construct: also called Sino Biological 10136-H08H
# Method: as §3
# [12] = target: T1, Recombinant Rhesus macaque VEGFR2/KDR …; experiment: ELISA, rhesus VEGFR2-his coated, anti-human Fc-HRP; antibody made in CHO cells
# T5 sequence (P17948 27-756 limits assumed): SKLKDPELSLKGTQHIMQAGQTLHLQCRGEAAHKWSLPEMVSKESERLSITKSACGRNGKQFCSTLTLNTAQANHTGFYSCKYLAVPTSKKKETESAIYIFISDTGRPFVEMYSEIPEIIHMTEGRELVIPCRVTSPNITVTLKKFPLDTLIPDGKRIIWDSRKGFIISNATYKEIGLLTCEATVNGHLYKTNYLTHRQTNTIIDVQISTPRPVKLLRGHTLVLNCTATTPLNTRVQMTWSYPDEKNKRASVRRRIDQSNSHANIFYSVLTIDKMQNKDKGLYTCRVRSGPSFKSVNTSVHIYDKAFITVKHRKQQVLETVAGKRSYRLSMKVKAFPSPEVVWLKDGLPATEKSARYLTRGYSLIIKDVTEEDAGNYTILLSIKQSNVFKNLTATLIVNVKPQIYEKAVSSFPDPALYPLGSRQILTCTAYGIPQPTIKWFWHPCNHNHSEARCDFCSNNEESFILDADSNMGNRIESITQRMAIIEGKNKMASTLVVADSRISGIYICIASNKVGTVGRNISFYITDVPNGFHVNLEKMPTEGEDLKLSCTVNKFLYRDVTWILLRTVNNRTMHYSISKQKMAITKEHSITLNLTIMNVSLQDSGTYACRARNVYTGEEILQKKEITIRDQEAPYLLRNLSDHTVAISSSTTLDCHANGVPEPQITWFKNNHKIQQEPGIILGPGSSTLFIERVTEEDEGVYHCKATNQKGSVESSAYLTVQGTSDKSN
Binder,Kd [1],koff [1],kon [1],IC50 (read off the curve) [2],IC50 (read off the curve) [3],EC50 [4],IC50 [5],EC50 [6],EC50 [7],IC50 [8],EC50 [9],IC50 [10],EC50 (read off the curve) [11],binding result (human VEGFR3 protein),binding result (human VEGFR1 protein),EC50 [12]
B1,< 1 pM,< 1e-07 s⁻¹,1.14e+06 M⁻¹ s⁻¹,~0.2 µg/mL,~0.07 µg/mL,0.024 µg/mL,0.0416 µg/mL,0.0232 µg/mL,,,,,,,,
B2,,,,,,,,,0.0205 µg/mL,0.727 µg/mL,0.00899 µg/mL,0.833 µg/mL,~0.2 µg/mL,no binding (tested: 1 µg/ml),no binding (tested: 1 µg/ml),0.00864 µg/mL
